Measured values: patent US20070071746A1 (AstraZeneca / MedImmune, published 2007)

T1: human YKL-39 (human, UniProt Q15782 27-390)
T1 construct: Recombinant from HEK293; non-tagged versions also made; also called hYKL-39; chondrocyte protein 39
T1 sequence: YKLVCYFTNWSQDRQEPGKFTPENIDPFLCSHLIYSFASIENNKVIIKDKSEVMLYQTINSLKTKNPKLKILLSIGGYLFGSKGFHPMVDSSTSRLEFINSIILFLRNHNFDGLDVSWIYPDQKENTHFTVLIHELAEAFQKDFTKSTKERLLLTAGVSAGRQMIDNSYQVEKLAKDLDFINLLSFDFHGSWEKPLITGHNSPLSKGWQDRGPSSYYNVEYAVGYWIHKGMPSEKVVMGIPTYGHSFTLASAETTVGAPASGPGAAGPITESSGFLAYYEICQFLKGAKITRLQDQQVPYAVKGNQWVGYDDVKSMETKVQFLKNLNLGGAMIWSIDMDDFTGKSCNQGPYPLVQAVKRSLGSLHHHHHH

B1: Z8 (antibody, V domains shown)
VH: EVQLLESGGGLVQPGGSLRLSCAASGFTFSPYLMWWVRQAPGKGLEWVSYISSSGGYTSYADSVKGRFTISRDNSKNTLYLQMNSLRAEDTAMYYCARMYYYDSSGYPSFDYWGQGTLVTVSS
VL: QSALTQPPSASGTPGQRVTISCSGSGSNIGSNTVNWYQQLPGTAPKLLIYSSNQRPSGVSDRFSGSKSVASASLAINGLQSEDEADYYCAGWDDSLNGPVFGGGTKLTVL
notes: Fully human anti-AMCase antibody from phage display, converted to full length IgG
B2: Z1 (antibody, V domains shown)
VH: EVQLLESGGGLVQPGGSLRLSCAASGFTFSFYRMAWVRQAPGKGLEWVSRISSSGGPTMYADSVKGRFTISRDNSKNTLYLQMNSLRAEDTAVYYCTTEKQYAGVTFESWGQGTLVTVSS
VL: DIQMTQSPATLSLSPGERATLSCRASQSVSSYLAWYQQKPGQAPRLLIYDASNRATGIPARFSGSGSGTDFTLTISSLEPEDFAVYYCQQRSNSPTFGGGTKVEIK
notes: as for B1

Columns and labels:
mouse AMCase D136A = target: T2, mouse AMCase D136A (mouse, UniProt Q91XA9 22-473); test: ELISA; ++ = 1.00 to 2.49 OD at 62.5 ng/ml
T2 construct: Full length point mutant without chitinase activity; also called mAMCase D136A
T2 sequence (Q91XA9 22-473 D136A limits assumed): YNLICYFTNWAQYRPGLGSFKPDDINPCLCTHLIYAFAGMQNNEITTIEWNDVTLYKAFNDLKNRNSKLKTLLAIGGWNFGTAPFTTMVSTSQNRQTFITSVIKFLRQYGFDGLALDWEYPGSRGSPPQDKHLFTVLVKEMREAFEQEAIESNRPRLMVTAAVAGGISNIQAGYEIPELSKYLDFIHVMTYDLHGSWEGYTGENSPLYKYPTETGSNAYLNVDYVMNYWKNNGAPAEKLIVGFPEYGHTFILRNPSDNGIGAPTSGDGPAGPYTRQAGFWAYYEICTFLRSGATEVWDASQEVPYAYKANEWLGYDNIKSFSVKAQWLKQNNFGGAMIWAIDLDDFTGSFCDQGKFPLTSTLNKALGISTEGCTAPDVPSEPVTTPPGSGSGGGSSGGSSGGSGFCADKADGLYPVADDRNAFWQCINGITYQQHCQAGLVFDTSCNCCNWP

human YKL-39 [1] = target: T1, human YKL-39; test: ELISA
human chitotriosidase = target: T3, human chitotriosidase (human, UniProt Q13231 22-466); test: ELISA
T3 construct: Recombinant from HEK293; non-tagged versions also made; also called hChT; ChT
T3 sequence (Q13231 other isoform, or with tags, fused parts or gaps limits assumed): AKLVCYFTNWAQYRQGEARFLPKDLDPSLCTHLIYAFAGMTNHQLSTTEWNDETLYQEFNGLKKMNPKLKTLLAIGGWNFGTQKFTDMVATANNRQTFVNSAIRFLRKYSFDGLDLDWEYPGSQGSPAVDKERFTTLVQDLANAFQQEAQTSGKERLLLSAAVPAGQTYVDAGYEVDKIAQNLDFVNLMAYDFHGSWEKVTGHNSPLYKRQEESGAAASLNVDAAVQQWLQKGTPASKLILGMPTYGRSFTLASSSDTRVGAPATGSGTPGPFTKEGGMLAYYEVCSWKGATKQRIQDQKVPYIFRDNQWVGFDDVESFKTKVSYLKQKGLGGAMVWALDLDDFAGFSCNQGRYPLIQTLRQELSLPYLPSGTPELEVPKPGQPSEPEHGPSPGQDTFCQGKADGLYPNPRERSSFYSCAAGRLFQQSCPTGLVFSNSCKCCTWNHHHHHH

[2] = target: T4, mouse AMCase truncated form lacking the C-terminal chitin binding domain (mouse, UniProt Q91XA9 22-398, limits assumed); test: ELISA
T4 construct: also called mAMCase TR
T4 sequence (Q91XA9 22-398 limits assumed): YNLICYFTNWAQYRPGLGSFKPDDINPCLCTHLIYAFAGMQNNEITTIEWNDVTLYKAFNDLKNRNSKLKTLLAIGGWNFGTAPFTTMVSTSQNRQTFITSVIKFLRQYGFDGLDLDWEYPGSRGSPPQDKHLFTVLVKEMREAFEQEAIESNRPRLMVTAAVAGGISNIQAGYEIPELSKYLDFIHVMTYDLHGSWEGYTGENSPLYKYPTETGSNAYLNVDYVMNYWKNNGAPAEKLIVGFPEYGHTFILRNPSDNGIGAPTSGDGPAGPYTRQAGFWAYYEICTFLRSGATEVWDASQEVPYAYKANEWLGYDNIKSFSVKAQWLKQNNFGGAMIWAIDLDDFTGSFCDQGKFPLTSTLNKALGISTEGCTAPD

[3] = target: T5, human AMCase C-terminally truncated, lacking the chitin binding domain (human, UniProt Q9BZP6 22-398, limits assumed); test: ELISA
T5 construct: Biotin labeled in the galectin ELISA; also called hAMCase TR
T5 sequence (Q9BZP6 22-398 limits assumed): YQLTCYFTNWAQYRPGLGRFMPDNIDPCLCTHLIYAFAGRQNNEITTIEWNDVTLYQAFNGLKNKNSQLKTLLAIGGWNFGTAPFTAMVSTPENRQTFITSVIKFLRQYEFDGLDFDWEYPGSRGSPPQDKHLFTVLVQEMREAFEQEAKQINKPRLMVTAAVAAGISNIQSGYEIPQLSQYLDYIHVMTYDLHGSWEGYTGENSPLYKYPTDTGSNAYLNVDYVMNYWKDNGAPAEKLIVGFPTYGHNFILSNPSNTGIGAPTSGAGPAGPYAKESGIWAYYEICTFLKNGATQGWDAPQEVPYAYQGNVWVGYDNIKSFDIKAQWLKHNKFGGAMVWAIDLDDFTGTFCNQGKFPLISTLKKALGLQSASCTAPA

mouse chitotriosidase = target: T6, mouse chitotriosidase (mouse, UniProt Q9D7Q1 22-464); test: ELISA
T6 construct: Recombinant from HEK293; non-tagged versions also made; also called mChT; mouse ChT
T6 sequence (Q9D7Q1 other isoform, or with tags, fused parts or gaps limits assumed): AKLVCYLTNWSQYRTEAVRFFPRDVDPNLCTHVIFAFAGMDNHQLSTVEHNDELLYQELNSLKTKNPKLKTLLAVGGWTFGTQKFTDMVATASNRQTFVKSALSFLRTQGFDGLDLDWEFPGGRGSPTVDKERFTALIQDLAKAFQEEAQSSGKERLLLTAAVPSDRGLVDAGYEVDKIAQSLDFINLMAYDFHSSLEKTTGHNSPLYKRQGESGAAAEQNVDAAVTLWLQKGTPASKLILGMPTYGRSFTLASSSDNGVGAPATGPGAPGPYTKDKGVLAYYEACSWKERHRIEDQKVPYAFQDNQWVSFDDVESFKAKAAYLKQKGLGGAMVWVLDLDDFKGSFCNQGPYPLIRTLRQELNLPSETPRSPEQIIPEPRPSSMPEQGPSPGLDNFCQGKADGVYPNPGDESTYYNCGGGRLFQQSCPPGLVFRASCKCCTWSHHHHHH

Ym1 = target: T7, Ym1 (mouse, UniProt O35744 22-398); test: ELISA
T7 construct: Recombinant from HEK293; non-tagged versions also made; also called chitinase 3-like 3; ECF-L
T7 sequence (O35744 other isoform, or with tags, fused parts or gaps limits assumed): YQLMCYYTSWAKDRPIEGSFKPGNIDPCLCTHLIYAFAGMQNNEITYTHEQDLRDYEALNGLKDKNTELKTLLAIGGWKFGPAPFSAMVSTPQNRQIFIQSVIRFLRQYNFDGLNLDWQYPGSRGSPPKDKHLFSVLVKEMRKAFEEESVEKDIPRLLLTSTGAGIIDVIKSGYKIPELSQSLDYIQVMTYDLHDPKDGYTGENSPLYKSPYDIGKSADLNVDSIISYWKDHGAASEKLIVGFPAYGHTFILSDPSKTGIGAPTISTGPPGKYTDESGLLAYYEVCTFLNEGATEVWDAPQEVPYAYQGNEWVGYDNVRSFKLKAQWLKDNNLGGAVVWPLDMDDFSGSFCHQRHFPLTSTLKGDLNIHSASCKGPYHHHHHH

human YKL-40 = target: T8, human YKL-40 (human, UniProt P36222 22-383); test: ELISA
T8 construct: Recombinant from HEK293; non-tagged versions also made; also called hYKL-40; chitinase 3-like 1
T8 sequence (P36222 other isoform, or with tags, fused parts or gaps limits assumed): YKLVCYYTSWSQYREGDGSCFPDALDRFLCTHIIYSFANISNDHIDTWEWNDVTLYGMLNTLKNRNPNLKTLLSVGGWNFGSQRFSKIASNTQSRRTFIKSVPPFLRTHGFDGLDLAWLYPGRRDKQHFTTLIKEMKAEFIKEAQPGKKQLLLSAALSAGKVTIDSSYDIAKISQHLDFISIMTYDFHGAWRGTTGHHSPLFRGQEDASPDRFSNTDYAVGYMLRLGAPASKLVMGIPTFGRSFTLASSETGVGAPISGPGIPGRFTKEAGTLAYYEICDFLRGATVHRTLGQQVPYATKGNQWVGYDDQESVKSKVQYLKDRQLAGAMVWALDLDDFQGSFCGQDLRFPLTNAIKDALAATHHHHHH

mouse YKL-40/BRP-39 = target: T9, mouse YKL-40/BRP-39 (mouse, UniProt Q61362 30-389); test: ELISA
T9 construct: Recombinant from HEK293; non-tagged versions also made; also called mYKL40/BRP39; mYKL-40
T9 sequence (Q61362 other isoform, or with tags, fused parts or gaps limits assumed): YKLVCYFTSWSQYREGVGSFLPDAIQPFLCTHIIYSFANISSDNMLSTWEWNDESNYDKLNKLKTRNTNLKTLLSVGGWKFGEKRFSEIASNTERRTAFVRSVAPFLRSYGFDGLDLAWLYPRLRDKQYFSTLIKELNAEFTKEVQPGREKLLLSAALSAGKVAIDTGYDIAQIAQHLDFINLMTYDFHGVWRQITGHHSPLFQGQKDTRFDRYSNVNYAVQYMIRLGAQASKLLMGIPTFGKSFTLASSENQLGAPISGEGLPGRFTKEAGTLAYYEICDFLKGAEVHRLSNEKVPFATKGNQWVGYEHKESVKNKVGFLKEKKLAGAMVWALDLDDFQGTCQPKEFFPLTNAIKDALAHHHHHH

Ym2 [4] = target: T10, Ym2 (mouse, UniProt Q91Z98 22-402); test: ELISA
T10 construct: Recombinant from HEK293; non-tagged versions also made; also called chitinase 3-like 4
T10 sequence (Q91Z98 other isoform, or with tags, fused parts or gaps limits assumed): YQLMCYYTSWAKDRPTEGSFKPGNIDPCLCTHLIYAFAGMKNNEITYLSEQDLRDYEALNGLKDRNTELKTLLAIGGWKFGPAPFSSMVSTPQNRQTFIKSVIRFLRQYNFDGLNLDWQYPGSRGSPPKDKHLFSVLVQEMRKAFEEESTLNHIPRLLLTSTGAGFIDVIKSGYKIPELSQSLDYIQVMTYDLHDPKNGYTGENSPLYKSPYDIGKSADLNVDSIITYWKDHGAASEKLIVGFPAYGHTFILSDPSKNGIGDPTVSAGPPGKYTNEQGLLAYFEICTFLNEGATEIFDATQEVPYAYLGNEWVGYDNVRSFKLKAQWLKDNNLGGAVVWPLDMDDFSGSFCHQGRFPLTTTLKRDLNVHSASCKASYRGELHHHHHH

mouse AMCase E140A = target: T11, mouse AMCase E140A (mouse, UniProt Q91XA9 22-473); test: ELISA; + = 0.20 to 0.99 OD at 62.5 ng/ml
T11 construct: Full length point mutant without chitinase activity; also called mAMCase E140A
T11 sequence (Q91XA9 22-473 E140A limits assumed): as the sequence (Q91XA9 22-473 D136A limits assumed) above, with A115D, E119A counted along it

[5] = target: T12, mouse acidic mammalian chitinase (AMCase), full length (mouse, UniProt Q91XA9 22-473); test: ELISA; + = 0.20 to 0.99 OD at 62.5 ng/ml
T12 construct: Recombinant, secreted from HEK293 cells and purified by its His tag; Biotin labeled in the galectin ELISA; also called mAMCase; mouse AMCase
T12 sequence (Q91XA9 other isoform, or with tags, fused parts or gaps limits assumed): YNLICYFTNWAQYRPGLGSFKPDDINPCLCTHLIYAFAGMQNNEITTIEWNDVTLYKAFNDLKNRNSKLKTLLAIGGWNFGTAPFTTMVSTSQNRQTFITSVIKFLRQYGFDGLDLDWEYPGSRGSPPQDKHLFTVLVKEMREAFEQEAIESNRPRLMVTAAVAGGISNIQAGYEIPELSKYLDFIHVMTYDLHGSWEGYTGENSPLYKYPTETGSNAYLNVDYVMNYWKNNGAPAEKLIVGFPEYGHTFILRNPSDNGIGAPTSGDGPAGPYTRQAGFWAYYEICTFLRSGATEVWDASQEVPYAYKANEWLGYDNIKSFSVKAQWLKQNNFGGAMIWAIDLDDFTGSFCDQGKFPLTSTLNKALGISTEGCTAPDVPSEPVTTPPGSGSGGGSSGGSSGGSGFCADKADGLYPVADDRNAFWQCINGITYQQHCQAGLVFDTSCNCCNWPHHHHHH

[6] = target: T4, mouse AMCase truncated form lacking the …; test: ELISA; ++ = 1.00 to 2.49 OD at 62.5 ng/ml
[7] = target: T12, mouse acidic mammalian chitinase …; test: ELISA; ++ = 1.00 to 2.49 OD at 62.5 ng/ml
human YKL-39 [8] = target: T1, human YKL-39; test: ELISA; + = 0.20 to 0.99 OD at 62.5 ng/ml
Ym2 [9] = target: T10, Ym2; test: ELISA; + = 0.20 to 0.99 OD at 62.5 ng/ml

| Binder | ELISA OD at 62.5 ng/ml antibody (mouse AMCase D136A) | binding result (human YKL-39 [1]) | binding result (human chitotriosidase) | binding result [2] | binding result [3] | binding result (mouse chitotriosidase) | binding result (Ym1) | binding result (human YKL-40) | binding result (mouse YKL-40/BRP-39) | binding result (Ym2 [4]) | ELISA OD at 62.5 ng/ml antibody (mouse AMCase E140A) | ELISA OD at 62.5 ng/ml antibody [5] | ELISA OD at 62.5 ng/ml antibody [6] | ELISA OD at 62.5 ng/ml antibody [7] | ELISA OD at 62.5 ng/ml antibody (human YKL-39 [8]) | binding result (Ym2 [9]) |
| --- | --- | --- | --- | --- | --- | --- | --- | --- | --- | --- | --- | --- | --- | --- | --- | --- |
| B1 | 1 to 2.49 od | no binding | no binding | no binding | no binding | no binding | no binding | no binding | no binding | no binding | 0.2 to 0.99 od | 0.2 to 0.99 od |  |  |  |  |
| B2 |  |  |  |  |  |  |  | no binding | no binding |  | 0.2 to 0.99 od |  | 1 to 2.49 od | 1 to 2.49 od | 0.2 to 0.99 od | binds |
